Here are results for 2 molecules from patent US20230303636A1 (UNIVERSITY COURT OF THE UNIVERSITY OF GLASGOW, published 2023).

For one experiment, the target named is T1, pyocin AP41 (Pseudomonas aeruginosa (gene amplified …)).
T1 chain: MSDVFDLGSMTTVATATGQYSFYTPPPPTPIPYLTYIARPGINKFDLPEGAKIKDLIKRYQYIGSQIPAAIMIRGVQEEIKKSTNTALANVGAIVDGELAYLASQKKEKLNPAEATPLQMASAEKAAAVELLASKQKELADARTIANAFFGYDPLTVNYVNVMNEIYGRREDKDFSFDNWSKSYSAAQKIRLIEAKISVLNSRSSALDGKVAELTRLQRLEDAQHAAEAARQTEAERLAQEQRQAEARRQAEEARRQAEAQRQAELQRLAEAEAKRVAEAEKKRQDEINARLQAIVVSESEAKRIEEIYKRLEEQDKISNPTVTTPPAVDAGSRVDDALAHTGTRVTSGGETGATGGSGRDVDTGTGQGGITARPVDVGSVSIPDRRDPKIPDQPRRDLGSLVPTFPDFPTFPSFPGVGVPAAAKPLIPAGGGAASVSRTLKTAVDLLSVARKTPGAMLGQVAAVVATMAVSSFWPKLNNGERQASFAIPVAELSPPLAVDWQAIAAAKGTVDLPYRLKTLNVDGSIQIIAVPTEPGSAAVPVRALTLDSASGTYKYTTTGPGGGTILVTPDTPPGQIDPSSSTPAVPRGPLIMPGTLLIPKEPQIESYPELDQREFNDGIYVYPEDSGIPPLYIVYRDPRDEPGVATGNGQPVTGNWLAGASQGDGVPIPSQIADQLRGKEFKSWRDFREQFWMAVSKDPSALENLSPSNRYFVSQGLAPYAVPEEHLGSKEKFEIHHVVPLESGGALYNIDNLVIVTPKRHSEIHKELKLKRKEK
Nature of the experiment: co-expression in E. coli; complex purified on a His Trap column and by gel filtration.

Another experiment addresses pyocin S2 (Pseudomonas aeruginosa, UniProt Q06584 1-689). In words: purification of the complex, method only by reference.

Chain of pyocin S2 (Q06584 whole entry): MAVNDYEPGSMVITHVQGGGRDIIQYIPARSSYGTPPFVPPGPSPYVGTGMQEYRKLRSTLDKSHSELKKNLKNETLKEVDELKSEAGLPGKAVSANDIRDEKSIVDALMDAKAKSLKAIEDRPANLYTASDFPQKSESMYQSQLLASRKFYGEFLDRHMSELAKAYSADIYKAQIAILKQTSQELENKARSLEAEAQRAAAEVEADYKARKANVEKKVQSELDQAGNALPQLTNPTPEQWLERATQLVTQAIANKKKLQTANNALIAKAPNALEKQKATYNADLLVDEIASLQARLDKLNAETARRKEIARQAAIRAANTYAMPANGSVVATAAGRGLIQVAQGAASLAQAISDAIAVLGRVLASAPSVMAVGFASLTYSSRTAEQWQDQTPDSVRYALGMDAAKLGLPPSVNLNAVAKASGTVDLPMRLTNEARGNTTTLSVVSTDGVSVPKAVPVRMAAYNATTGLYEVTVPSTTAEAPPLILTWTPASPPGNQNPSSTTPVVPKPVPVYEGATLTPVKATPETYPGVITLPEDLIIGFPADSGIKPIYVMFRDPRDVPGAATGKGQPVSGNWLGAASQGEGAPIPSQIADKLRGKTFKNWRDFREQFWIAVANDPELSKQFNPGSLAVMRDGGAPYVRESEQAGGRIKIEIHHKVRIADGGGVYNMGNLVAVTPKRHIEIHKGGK

B1: pyocin AP41 immunity protein with C-terminal His6-tag (other)
chain: MDIKNNLSDYTESEFLEIIEEFFKNKSGLKGSELEKRMDKLVKHFEEVTSHPRKSGVIFHPKPGFETPEGIVKEVKEWRAANGLPGFKAG
notes: It is not explicitly tied to the C763 construct; also called ImAP41; not shown: C-terminal His6-tag from pET21a (XhoI site in place of the stop codon)
With B1, in the experiment with pyocin AP41, the binding result is listed as “binds”.

B2: pyocin S2 immunity protein (other)
chain: MKSKISEYTEKEFLEFVKDIYTNNKKKFPTEESHIQAVLEFKKLTEHPSGSDLLYYPNENREDSPAGVVKEVKEWRASKGLPGFKAG
notes: also called ImS2
With B2, the binding result in the experiment with pyocin S2 is on record as “binds”.
